Data from patent US10538583 (dated 2020).
Positions count from the first letter of the chain named.

B1: mAb12 (antibody, V domains shown)
VH: QLVESGGGLVQPGGSLRLSCAASGFTFSTYSMRWVRQVPGKGLEWVSSIHTDAGGTAYRDSVKGRFTISRDNAKNTLYLQMNSLRPEDTAIYYCVIAGYSDWGQGTLVTVSS
VL: DIVMTQSPLSLSVTPGEPASISCKTSQGLVHSDGKTYFYWFLQKPGQSPQQLIYQVSNRASGVPDRFTGSGSGTDFTLKISRVKAEDVGVYYCAHGTYYPHTFGQGTRLEIK
B2: 5E5VH5VH12_VLWT IgG1 (antibody, V domains shown)
VH: QLQLVESGGGLVQPGGSLRLSCAASGFTFGTYSMRWVRQVPRKALEWVSSIHTDGGGTAYRDSVKGRFTISRDNAKNTLYLQMNNLKPEDTAIYYCVIHGYSDWGQGTQVTVSS
VL: ATMLTQSPGSLSVVPGESASISCKTSQGLVHSDGKTYFYWFLQKPGQSPQQLIYQVSNRASGVPDRFTGSGSGTDFTLKISGVKAEDAGVYYCAQGTYYPHTFGSGTRLEIK
B3: 5E5VH12_VLWT IgG1 (antibody, V domains shown)
VH: B2 VH with H52S
VL: B2 VL
B4: 5E5VH12_VLWT scFv-Fc (antibody, V domains shown)
VH: B2 VH with H52S
VL: B2 VL
B5: 5E5WT scFv-Fc (antibody, V domains shown)
VH: B2 VH with H52S, H99A
VL: B2 VL
B6: 5E5VH5_VL8 IgG1 (antibody, V domains shown)
VH: B2 VH with H99A
VL: B2 VL with Q95H
B7: 5E5VH12_VL8 IgG1 (antibody, V domains shown)
VH: B2 VH with H52S
VL: B2 VL with Q95H
B8: 5E5VHWT_VL8 IgG1 (antibody, V domains shown)
VH: B2 VH with H52S, H99A
VL: B2 VL with Q95H
B9: 5E5WT (5E5) IgG1 (antibody, V domains shown)
VH: B2 VH with H52S, H99A
VL: B2 VL
B10: 5E5VH5_VLWT scFv-Fc (antibody, V domains shown)
VH: B2 VH with H99A
VL: B2 VL
B11: 5E5VH5VH12_VL8 IgG1 (antibody, V domains shown)
VH: B2 VH
VL: B2 VL with Q95H
B12: 5E5VH5_VLWT IgG1 (antibody, V domains shown)
VH: B2 VH with H99A
VL: B2 VL
B13: 5E5VHWT_VL8 scFv-Fc (antibody, V domains shown)
VH: B2 VH with H52S, H99A
VL: B2 VL with Q95H

Key:
human ApoC3 [1] = molecular target: human ApoC3 (human); assay: SPR pH 7.4, antibody immobilized
human ApoC3 [2] = molecular target: human ApoC3 (human); assay: SPR pH 5.5, antibody immobilized
human ApoC3 [3] = molecular target: human ApoC3 (human); assay: SPR pH 7.4
human ApoC3 [4] = molecular target: human ApoC3 (human); assay: SPR pH 5.5
human ApoC3 [5] = molecular target: human ApoC3 (human); assay: SPR pH 7.4; remark: listed apart in the source
human ApoC3 [6] = molecular target: human ApoC3 (human); assay: SPR pH 5.5; remark: listed apart in the source
human ApoC3 [7] = molecular target: human ApoC3 (human); assay: SPR pH 7.4; remark: listed apart in the source
human ApoC3 [8] = molecular target: human ApoC3 (human); assay: SPR pH 5.5; remark: listed apart in the source
human ApoC3 [9] = molecular target: human ApoC3 (human); assay: SPR pH 5.5; remark: listed apart in the source

human ApoC3 (human), sequence (chain, as listed by the source): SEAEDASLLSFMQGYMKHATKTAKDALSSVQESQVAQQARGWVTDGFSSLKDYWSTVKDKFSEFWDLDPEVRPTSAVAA

Binder	Kd (human ApoC3 [5]) [pM]	Kd (human ApoC3 [6]) [pM]	Kd (human ApoC3 [7]) [pM]	Kd (human ApoC3 [8]) [pM]	also measured
B1					Kd (human ApoC3 [1]): 321000 pM; Kd (human ApoC3 [2]): 343000 pM; Kd (human ApoC3 [3]): 65.5 pM; Kd (human ApoC3 [4]): 139 pM
B2	4960	20200			
B3	35.1	1020			
B4			510	16000	
B5			20	60	
B6	975	11400			Kd (human ApoC3 [1]): 298000 pM; Kd (human ApoC3 [3]): 975 pM; Kd (human ApoC3 [4]): 11400 pM
B7	609	8790			
B8	36.3	55.6			
B9	51.2	49.9			Kd (human ApoC3 [3]): 51.2 pM; Kd (human ApoC3 [4]): 49.9 pM
B10			590	10900	
B11	22400				binding result (human ApoC3 [9]): no binding
B12	211	1310			
B13			580	4290	
